# How the values were obtained:
# [1] = tested on: protein tyrosine kinase Lyn; experiment: Lyn phosphorylation in B cell lymphoma cell line WEHI-231 (Western blot); type: cell-based; conditions: 0.21 μg per 1.5×10^6 WEHI-231 cells, 0, 2, 5 minutes
# Description: The effect of IL-17E on activation of signaling pathways in B cells was examined using the B cell lymphoma cell line WEHI-231 (Lanier L. L., et al. (1981) J. Immunol. 126:626-31). Specifically, the activation status of the protein tyrosine kinase Lyn and the B cell linker protein BLNK (Tsubata, T., et al., (2001) Int Rev Immunol 20:675-8) were examined. An increased level of the phosphorylated forms of these proteins is indicative of activation.
# A total of 1.5×10^6 cells per sample were stimulated in vitro with 0.21 μg of either human IL-17E or murine IL17E at 37° C. Cells were lysed at time points t=0, 2, and 5 minutes in lysis buffer for 30 minutes on ice, followed by centrifugation for 10 minutes. Samples containing approximately 25 μg of protein were separated by SDS-PAGE, followed by transfer to membranes for Western blotting.
# For detection of Lyn, Western blots were incubated with rabbit anti-Lyn antibodies, followed by horseradish peroxidase (HRP)-conjugated anti-rabbit antibodies. All blots were exposed to autoradiography film and developed to detect proteins of interest by chemiluminescence.
# To assess equivalence in protein loading among lanes in both experiments, blots were stripped of antibodies and incubated with mouse anti-GAPDH antibodies and HRP-conjugated anti-mouse antibodies, followed by chemiluminescence-based detection.
# [2] = tested on: human pancreatic cancer MiaPaCa-2 xenograft; experiment: Antitumour efficacy in human pancreatic cancer MiaPaCa-2 xenograft model; type: in vivo, CD-1 athymic nude mice; conditions: 0.04 mg/kg murine IL-17E i.p. every third day
# Description: The ability of murine interleukin 17E to inhibit human pancreatic cancer growth was examined as follows. Human pancreatic cancer MiaPaCa-2 cells (10^6 cells in 100 μl PBS) were subcutaneously implanted into the right flank of CD-1 athymic nude mice. Murine IL-17E was obtained from R&D Systems, Inc., and is present in the preparation as a disulphide linked homodimer. The predominant form of IL-17E in this preparation is the form starting at Val 17 of the murine sequence provided as GenBank Accession No. NP 542767. When tumours reached a volume of 50-100 mm^3, mice were randomly separated into two groups of 8 animals and treated as follows:
# Group I: […] of PBS intraperitoneally (i.p.) per mouse every day until the endpoint of the experiment; and
# Group II: 0.04 mg/kg of murine IL-17E intraperitoneally (i.p.) every third day until the endpoint of the experiment.
# The size of the tumours was measured by caliper measurements throughout the experiment. Tumour weight was determined from tumour tissue surgically excised from the animal on the last day of the experiment. […]
# 25 μg of murine or human IL-17E were reconstituted with 200 μl PBS. […] Samples were separated by electrophoresis on SDS-PAGE gels and analyzed by either Western blotting or silver staining to show a reduction in IL-17E levels in immunodepleted samples. […]
Molecule,levels of phosphorylated Lyn protein [1],tumour growth (tumour volume and weight) as compared to PBS [2]
"human IL-17E: Recombinant human IL-17E from PeproTech; two 145 amino acid chains, predominant form starting at Tyr 33 of GenBank AAG40848 (protein, listed as Homo sapiens) YSHWPSCCPSKGQDTSEELLRWSTVPVPPLEPARPNRHPESCRASEDGPLNSRAISPWRYELDRDLNRLPQDLYHARCLCPHCVSLQTGSHMDPRGNSELLYHNQTVFYRRPCHGEKGTHKGYCLERRLYRVSLACVCVRPRVMG",increased,
murine IL-17E: Murine IL-17E from R&D Systems; predominant form starting at Val 17 of GenBank NP 542767 (protein) VSLRIQEGCSHLPSCCPSKEQEPPEEWLKWSSASVSPPEPLSHTHHAESCRASKDGPLNSRAISPWSYELDRDLNRVPQDLYHARCLCPHCVSLQTGSHMDPLGNSVPLYHNQTVFYRRPCHGEEGTHRRYCLERRLYRVSLACVCVRPRVMA,increased,significantly inhibit tumour growth

# From patent US8287851B2, “Use of interleukin 17E for the treatment of cancer” (Lorus Therapeutics Inc., priority 2005, dated 2012)
